Measured values from publication PMC3764174.

Target: PCNA3_(N106R)-P450cam fusion protein (Sulfolobus solfataricus | Pseudomonas putida)

substrate-dependent O2 consumption rate (monooxygenase activity) of PUPPET-P4 at 18 nM complex, 25°C: 6.5 µM/min
Substance: PCNA2-G4S(P5)4G4S-PdX
